Results on one substance are retold here after paper PMC5434815, “The role of histidines in amyloid β fibril assembly” (Febs Letters, 2017).

Broadly, the Kd is the constant that tells how readily two partners part at equilibrium. Low values mean tighter binding, high ones weaker binding.

Test [1] deals with Amyloid β 1–40 H6A. The experiment in a line: SPR; preformed fibrils immobilised on a CM5 chip by amine coupling (3500 RU), probed with monomers of the same variant; monomer onto fibril end; 25 °C, 20 μL/min, 20 mM acetate pH 5.5, 150 mM NaCl; slow phase of dissociation only; KD = RD/RA x KD of Aβ1-40 wt (1 nM, from earlier work).
In test [2] the target is Amyloid β 1–40 H6A. Description: SPR; preformed fibrils immobilised on a CM5 chip by amine coupling (3500 RU), probed with monomers of the same variant; monomer onto fibril end; 25 °C, 20 μL/min, 20 mM phosphate pH 7.4, 150 mM NaCl; slow phase of dissociation only; KD = RD/RA x KD of Aβ1-40 wt (100 nM, from earlier work). (In general: SPR reads the build-up and loss of mass on a sensor chip optically.)

Regarding Amyloid β 1–40 H6A (peptide), in the test with Amyloid β 1–40 H6A [1], the Kd came to 1.43 nM, the RA (association rate relative to Aβ1-40 wt) turned out to be 1.94 and the RD (dissociation rate relative to Aβ1-40 wt) turned out to be 2.78. In the test with Amyloid β 1–40 H6A [2], this substance had a Kd of 427 nM, an RA (association rate relative to Aβ1-40 wt) of 0.45 and an RD (dissociation rate relative to Aβ1-40 wt) of 1.92.
